Experimental data as given in ChEMBL document CHEMBL4261651, “Probing the ligand preferences of the three types of bacterial pantothenate kinase” (Bioorg Med Chem, 2018).

Columns and labels:
[1] = compound: CC(C)(CO)[C@@H](O)C(=O)NCCC(=O)O; test: (§1) Substrate activity at Pseudomonas aeruginosa PanK3 expressed in Escherichia coli BL21(DE3) cells assessed as Kcat in presence of ATP/NADH by pyruvate kinase/lactate dehydrogenase enzyme coupled assay
[2] = compound: CC(C)(CO)[C@@H](O)C(=O)NCCCC(=O)O; test: as §1
[3] = compound: O=C(O)CCNC(=O)[C@H](O)CCO; test: as §1
[4] = compound: CC(C)(CO)[C@@H](O)C(=O)NCCC(=O)O; test: (§2) Substrate activity at Pseudomonas aeruginosa PanK3 expressed in Escherichia coli BL21(DE3) cells assessed as Km in presence of ATP/NADH by pyruvate kinase/lactate dehydrogenase enzyme coupled assay
[5] = compound: CC(C)(CO)[C@@H](O)C(=O)NCCCC(=O)O; test: as §2
[6] = compound: O=C(O)CCNC(=O)[C@H](O)CCO; test: as §2
[7] = compound: CCCCCn1cc(CNC(=O)[C@H](O)C(C)(C)CO)nn1; test: (§3) Substrate activity at N-terminal His6-tagged Staphylococcus aureus PanK2 expressed in Escherichia coli BL21(DE3) cells assessed as Kcat in presence of ATP/NADH by pyruvate kinase/lactate dehydrogenase enzyme coupled assay
[8] = compound: CCCCn1cc(CCNC(=O)[C@H](O)C(C)(C)CO)nn1; test: as §3
[9] = compound: COC(=O)CNC(=O)[C@H](O)C(C)(C)CO; test: as §3
[10] = compound: CC(C)(CO)[C@@H](O)C(=O)NCCC(=O)O; test: as §3
[11] = compound: CC(C)(CO)[C@@H](O)C(=O)NCCCC(=O)O; test: as §3
[12] = compound: CC(C)(CO)[C@@H](O)C(=O)NCc1cn(CCc2ccccc2)nn1; test: as §3
[13] = compound: CCCc1cn(CCCNC(=O)[C@H](O)C(C)(C)CO)nn1; test: as §3
[14] = compound: CCCCCn1cc(CCNC(=O)[C@H](O)C(C)(C)CO)nn1; test: as §3
[15] = compound: CCCCCNC(=O)CCNC(=O)[C@H](O)C(C)(C)CO; test: as §3
[16] = compound: CCCCCc1cn(CCNC(=O)[C@H](O)C(C)(C)CO)nn1; test: as §3
[17] = compound: CCCCCn1cc(CNC(=O)[C@H](O)C(C)(C)CO)nn1; test: (§4) Substrate activity at N-terminal His6-tagged Staphylococcus aureus PanK2 expressed in Escherichia coli BL21(DE3) cells assessed as Km in presence of ATP/NADH by pyruvate kinase/lactate dehydrogenase enzyme coupled assay
[18] = compound: CCCCn1cc(CCNC(=O)[C@H](O)C(C)(C)CO)nn1; test: as §4
[19] = compound: COC(=O)CNC(=O)[C@H](O)C(C)(C)CO; test: as §4
[20] = compound: CC(C)(CO)[C@@H](O)C(=O)NCCC(=O)O; test: as §4
[21] = compound: CC(C)(CO)[C@@H](O)C(=O)NCCCC(=O)O; test: as §4
[22] = compound: CC(C)(CO)[C@@H](O)C(=O)NCc1cn(CCc2ccccc2)nn1; test: as §4
[23] = compound: CCCc1cn(CCCNC(=O)[C@H](O)C(C)(C)CO)nn1; test: as §4
[24] = compound: CCCCCn1cc(CCNC(=O)[C@H](O)C(C)(C)CO)nn1; test: as §4
[25] = compound: CCCCCNC(=O)CCNC(=O)[C@H](O)C(C)(C)CO; test: as §4
[26] = compound: CCCCCc1cn(CCNC(=O)[C@H](O)C(C)(C)CO)nn1; test: as §4

B1: Type III pantothenate kinase (Pseudomonas aeruginosa (strain ATCC 15692 / DSM 22644 / CIP 104116 /JCM 14847 / LMG 12228 / 1C / PRS 101 / PAO1)), Q9HWC1 (protein)
chain: MILELDCGNSLIKWRVIEGAARSVAGGLAESDDALVEQLTSQQALPVRACRLVSVRSEQETSQLVARLEQLFPVSALVASSGKQLAGVRNGYLDYQRLGLDRWLALVAAHHLAKKACLVIDLGTAVTSDLVAADGVHLGGYICPGMTLMRSQLRTHTRRIRYDDAEARRALASLQPGQATAEAVERGCLLMLRGFVREQYAMACELLGPDCEIFLTGGDAELVRDELAGARIMPDLVFVGLALACPIE
B1 was tested, and the kcat [1] was 0.39 s⁻¹, the kcat [2] was 0.98 s⁻¹ and the kcat [3] was 0.32 s⁻¹. It also gave a Km [4] of 20 µM, a Km [5] of 683 µM and a Km [6] of 64 µM.

B2: Type II pantothenate kinase (Staphylococcus aureus (strain MSSA476)), Q6G7I0 (protein)
chain: MKVGIDAGGTLIKIVQEQDNQRTFKTELTKNIDQVVEWLNQQQIEKLCLTGGNAGVIAENINIPAQIFVEFDAASQGLGILLKEQGHDLADYIFANVGTGTSLHYFDGQSQRRVGGIGTGGGMIQGLGYLLSQITDYKQLTDMAQHGDRNTIDLKVRHIYKDTEPPIPGDLTAANFGHVLHHLDADFTPSNKLAAVIGVVGEVVTTMAITVAREFKTENIVYIGSSFHNNALLRKVVEDYTVLRGCKPYYVENGAFSGAIGALYLEK
B2 showed a kcat [7] of 3.4 s⁻¹, a kcat [8] of 0.82 s⁻¹ and a kcat [9] of 4 s⁻¹. The kcat [10] was 2.16 s⁻¹, the kcat [11] was 3.4 s⁻¹ and the kcat [12] was 4.7 s⁻¹. It also gave a kcat [13] of 7.6 s⁻¹, a kcat [14] of 0.73 s⁻¹ and a kcat [15] of 0.44 s⁻¹. It also gave a kcat [16] of 0.82 s⁻¹, a Km [17] of 64 µM and a Km [18] of 7.1 µM. The Km [19] was 36 µM, the Km [20] was 19 µM and the Km [21] was 60 µM. It also gave a Km [22] of 126 µM, a Km [23] of 369 µM and a Km [24] of 6.8 µM. For the same protein, the Km [25] was less than 1.5 µM and the Km [26] was 8.5 µM.
